For this series, the system named is supercharged variant of human trypsinogen-1 (PRSS1 sc).
supercharged variant of human trypsinogen-1 (PRSS1 sc), sequence (chain, as listed by the source mutant): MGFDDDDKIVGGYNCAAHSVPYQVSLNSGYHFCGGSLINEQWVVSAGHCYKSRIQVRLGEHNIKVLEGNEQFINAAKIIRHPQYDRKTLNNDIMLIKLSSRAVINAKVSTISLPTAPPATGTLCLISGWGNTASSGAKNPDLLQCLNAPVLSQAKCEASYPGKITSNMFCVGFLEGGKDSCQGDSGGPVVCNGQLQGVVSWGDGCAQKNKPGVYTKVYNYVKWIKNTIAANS

Consider trypsin, for which the “autoactivation (trypsin activity on CBZ-GPR-pNA after incubation with trypsin)” value is reported as “PRSS1 sc (SEQ ID NO 01) does not show a significant autoactivation”.

Source of the values: patent publication US20160237419.
